According to patent publication US20250381223A1 (UTC THERAPEUTICS SHANGHAI, published 2025):

Legend:
[1] = target: T1, mesothelin-Fc recombinant protein (human, UniProt Q13421 296-580, limits assumed); assay: flow cytometry, T cells with CAR mRNA, mesothelin-Fc + PE-anti-IgG-Fc; Control 0.97
T1 construct: construct not described; also called Meso-Fc; not shown: Fc part
Description: Mesothelin CAR mRNA obtained in Example 26 above was introduced into A549 tumor cells and T cells by electroporation, and the procedures are as follows: A549 tumor cells and T cells were collected and washed 3 times with the Opti-MEM medium. The cell pellet was resuspended in the Opti-MEM medium and the cell concentration was adjusted to 1×10e7 cells/mL. 10 μg of RNA was aliquoted into 1.5-mL EP tubes, 100 μL of T cells or A549 cells were added, followed by mixing well. 100 μL of cells mixed with RNA were added to the BTX electroporation cuvette and slight tapping was performed to avoid air bubbles. Electroporation was performed using a BTX instrument under the following parameters: for T cells: 500 V voltage, 0.7 ms; for A549 tumor cells: 300 V voltage, 0.5 ms. The cells were then transferred to a pre-warmed medium and cultured at 37° C. The binding of mesothelin CART cells to the mesothelin-Fc recombinant protein was determined by FACS staining. […] T cells without CAR molecules served as the control (“Mock”).

[2] = target: T2, CD40-Fc (human, UniProt P25942); assay: flow cytometry of T cells co-electroporated with 15 µg diabody mRNA and 0.5 µg 4D5.BBZ mRNA; CD40-Fc + PE-anti-IgG-Fc; E1 without mRNA: 0.27
T2 construct: part fused to Fc; staining reagent of the flow cytometry; also called recombinant human CD40-Fc antigen protein

[3] = target: T2, CD40-Fc; assay: flow cytometry of T cells co-electroporated with 15 µg diabody mRNA and 2 µg M12 CAR mRNA; CD40-Fc + PE-anti-Fc; E1 without mRNA: 0.56

T1 sequence (Q13421 other isoform, or with tags, fused parts or gaps limits assumed): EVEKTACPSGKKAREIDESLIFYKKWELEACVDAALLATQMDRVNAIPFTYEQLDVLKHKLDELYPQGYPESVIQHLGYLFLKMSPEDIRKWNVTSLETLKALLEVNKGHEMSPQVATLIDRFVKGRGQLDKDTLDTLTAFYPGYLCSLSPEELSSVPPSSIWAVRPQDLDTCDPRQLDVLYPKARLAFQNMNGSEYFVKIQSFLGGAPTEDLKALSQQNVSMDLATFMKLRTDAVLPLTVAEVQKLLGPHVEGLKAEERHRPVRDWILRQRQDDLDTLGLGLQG

| Binder | percent of cells in the gate [1] | % of cells in the positive gate [2] | % of cells in the positive gate [3] |
| --- | --- | --- | --- |
| anti-mesothelin scFv-M24 (scFv, On mRNA-electroporated T cells as CAR) scFv: QPVLTQPPSASGTPGQRVTISCSGSSSNIGSNYVYWYQQFPGTAPKLLIYMNNQRPSGVPDRFSGSKSGTSASLAISGLRSEDEADYYCAARDDSLSGYVTFGGGTKLTVLGGGGSGGGGSGGGGSEVHLVESGGGLVQPGGSLRLSCAASGFTFSSYAMSWVRQAPGKGLEWVSAISGSGGSTYYADSVKGRFTISRDNSKNTLYLQMNSLKTEDTAVYYCTRGVATFDYWGQGTLVTVSS | 93.6% | – | – |
| anti-mesothelin scFv-M20 (scFv, On mRNA-electroporated T cells as CAR) scFv: AIQMTQSPSSLSASVGNRVTITCRASQGISSAVAWYQQKPGKPPKLLISYASSLESGVPSRFSGSGSGTDFSLTISSLQPEDFATYFCQQFNSYPLTFGGGTKVEIKGGGGSGGGGSGGGGSQVQLVQSGAEVRKPGESLKISCKGSGYSFRDSWIAWVRQMPGQGLEWMGIIFPGDSNPIYSPSFQGQVTISADTSISTTFLQWRSLKASDSAIYYCARHAAWGAGWFDPWGQGTLVTVSS | 75.6% | – | – |
| 4.6 (bispecific antibody, expressed from mRNA in T cells) scFv-G4S-scFv: QVQLVQSGAEVKKPGSSVKVSCKASGGTFSSYAISWVRQAPGQGLEWMGMINPSGGTTSYAQKFQGRVTMTRDTSTSTVYMELSSLRPEDTAVYYCARGFRMDQWGQGTLVTVSSGGGGSGGGGSGGGGSQSALTQPPSASGSPGQSVTISCTGTSSDVGAYNFVSWYQQHPGNAPKLIIYDVRKRPSGIPDRFSASKSGNTASLTVSGLQADDEADYYCSSYAGNNNLVFGGGTKLTVLGGGGSQVKLQESGPGLVKPSETLSITCTVSGFSLSDYGVHWVRQSPGKGLEWLGVIWAGGGTNYNSALMSRKTISKDNSKSQVFLKMSSLTAADTAVYYCARDKGYSYYYSMDYWGQGTTVTVSSGGGGSGGGGSGGGGSDIQLTQSPSSLSVSVGDRVTISCRASESVEYYVTSLMQWYQQKPGQAPKLLIFAASNVESGVPSRFSGSGSGTNFTLTISSVQEEDFAMYFCQQSRKVPYTFGGGTKLEIK | – | 98.5 | 97.9 |
| 4.7 (bispecific antibody, expressed from mRNA in T cells) scFv-G4S-scFv: QSALTQPPSASGSPGQSVTISCTGTSSDVGAYNFVSWYQQHPGNAPKLIIYDVRKRPSGIPDRFSASKSGNTASLTVSGLQADDEADYYCSSYAGNNNLVFGGGTKLTVLGGGGSGGGGSGGGGSQVQLVQSGAEVKKPGSSVKVSCKASGGTFSSYAISWVRQAPGQGLEWMGMINPSGGTTSYAQKFQGRVTMTRDTSTSTVYMELSSLRPEDTAVYYCARGFRMDQWGQGTLVTVSSGGGGSQVKLQESGPGLVKPSETLSITCTVSGFSLSDYGVHWVRQSPGKGLEWLGVIWAGGGTNYNSALMSRKTISKDNSKSQVFLKMSSLTAADTAVYYCARDKGYSYYYSMDYWGQGTTVTVSSGGGGSGGGGSGGGGSDIQLTQSPSSLSVSVGDRVTISCRASESVEYYVTSLMQWYQQKPGQAPKLLIFAASNVESGVPSRFSGSGSGTNFTLTISSVQEEDFAMYFCQQSRKVPYTFGGGTKLEIK | – | 96.1 | 95.8 |
| 8.6 (bispecific antibody, expressed from mRNA in T cells) scFv-G4S-scFv: QVQLVQSGAEVKKPGSSVKVSCKASGGTFSSYAISWVRQAPGQGLEWMGMINPSGGTTSYAQKFQGRVTMTRDTSTSTVYMELSSLRPEDTAVYYCARGFRMDQWGQGTLVTVSSGGGGSGGGGSGGGGSQSALTQPPSASGSPGQSVTISCTGTSSDVGAYNFVSWYQQHPGNAPKLIIYDVRKRPSGIPDRFSASKSGNTASLTVSGLQADDEADYYCSSYAGNNNLVFGGGTKLTVLGGGGSQVKLQQSGPGLVTPSQSLSITCTVSGFSLSDYGVHWVRQSPGQGLEWLGVIWAGGGTNYNSALMSRKSISKDNSKSQVFLKMNSLQADDTAVYYCARDKGYSYYYSMDYWGQGTTVTVSSGGGGSGGGGSGGGGSDIVLTQSPASLAVSLGQRATISCRASESVEYYVTSLMQWYQQKPGQPPKLLIFAASNVESGVPARFSGSGSGTNFSLNIHPVDEDDVAMYFCQQSRKVPYTFGGGTKLEIK | – | 98.6 | 98.3 |
| 4.8 (bispecific antibody, expressed from mRNA in T cells) scFv-G4S-scFv: QSALTQPPSASGSPGQSVTISCTGTSSDVGAYNFVSWYQQHPGNAPKLIIYDVRKRPSGIPDRFSASKSGNTASLTVSGLQADDEADYYCSSYAGNNNLVFGGGTKLTVLGGGGSGGGGSGGGGSQVQLVQSGAEVKKPGSSVKVSCKASGGTFSSYAISWVRQAPGQGLEWMGMINPSGGTTSYAQKFQGRVTMTRDTSTSTVYMELSSLRPEDTAVYYCARGFRMDQWGQGTLVTVSSGGGGSDIQLTQSPSSLSVSVGDRVTISCRASESVEYYVTSLMQWYQQKPGQAPKLLIFAASNVESGVPSRFSGSGSGTNFTLTISSVQEEDFAMYFCQQSRKVPYTFGGGTKLEIKGGGGSGGGGSGGGGSQVKLQESGPGLVKPSETLSITCTVSGFSLSDYGVHWVRQSPGKGLEWLGVIWAGGGTNYNSALMSRKTISKDNSKSQVFLKMSSLTAADTAVYYCARDKGYSYYYSMDYWGQGTTVTVSS | – | 90.2 | 88.5 |
| 4.2 (bispecific antibody, expressed from mRNA in T cells) scFv-G4S-scFv: DIQLTQSPSSLSVSVGDRVTISCRASESVEYYVTSLMQWYQQKPGQAPKLLIFAASNVESGVPSRFSGSGSGTNFTLTISSVQEEDFAMYFCQQSRKVPYTFGGGTKLEIKGGGGSGGGGSGGGGSQVKLQESGPGLVKPSETLSITCTVSGFSLSDYGVHWVRQSPGKGLEWLGVIWAGGGTNYNSALMSRKTISKDNSKSQVFLKMSSLTAADTAVYYCARDKGYSYYYSMDYWGQGTTVTVSSGGGGSQVQLVQSGAEVKKPGSSVKVSCKASGGTFSSYAISWVRQAPGQGLEWMGMINPSGGTTSYAQKFQGRVTMTRDTSTSTVYMELSSLRPEDTAVYYCARGFRMDQWGQGTLVTVSSGGGGSGGGGSGGGGSQSALTQPPSASGSPGQSVTISCTGTSSDVGAYNFVSWYQQHPGNAPKLIIYDVRKRPSGIPDRFSASKSGNTASLTVSGLQADDEADYYCSSYAGNNNLVFGGGTKLTVL | – | 98.2 | 97.7 |
| 4.4 (bispecific antibody, expressed from mRNA in T cells) scFv-G4S-scFv: QVKLQESGPGLVKPSETLSITCTVSGFSLSDYGVHWVRQSPGKGLEWLGVIWAGGGTNYNSALMSRKTISKDNSKSQVFLKMSSLTAADTAVYYCARDKGYSYYYSMDYWGQGTTVTVSSGGGGSGGGGSGGGGSDIQLTQSPSSLSVSVGDRVTISCRASESVEYYVTSLMQWYQQKPGQAPKLLIFAASNVESGVPSRFSGSGSGTNFTLTISSVQEEDFAMYFCQQSRKVPYTFGGGTKLEIKGGGGSQVQLVQSGAEVKKPGSSVKVSCKASGGTFSSYAISWVRQAPGQGLEWMGMINPSGGTTSYAQKFQGRVTMTRDTSTSTVYMELSSLRPEDTAVYYCARGFRMDQWGQGTLVTVSSGGGGSGGGGSGGGGSQSALTQPPSASGSPGQSVTISCTGTSSDVGAYNFVSWYQQHPGNAPKLIIYDVRKRPSGIPDRFSASKSGNTASLTVSGLQADDEADYYCSSYAGNNNLVFGGGTKLTVL | – | 55.4 | 51 |
| 4.3 (bispecific antibody, expressed from mRNA in T cells) scFv-G4S-scFv: QVKLQESGPGLVKPSETLSITCTVSGFSLSDYGVHWVRQSPGKGLEWLGVIWAGGGTNYNSALMSRKTISKDNSKSQVFLKMSSLTAADTAVYYCARDKGYSYYYSMDYWGQGTTVTVSSGGGGSGGGGSGGGGSDIQLTQSPSSLSVSVGDRVTISCRASESVEYYVTSLMQWYQQKPGQAPKLLIFAASNVESGVPSRFSGSGSGTNFTLTISSVQEEDFAMYFCQQSRKVPYTFGGGTKLEIKGGGGSQSALTQPPSASGSPGQSVTISCTGTSSDVGAYNFVSWYQQHPGNAPKLIIYDVRKRPSGIPDRFSASKSGNTASLTVSGLQADDEADYYCSSYAGNNNLVFGGGTKLTVLGGGGSGGGGSGGGGSQVQLVQSGAEVKKPGSSVKVSCKASGGTFSSYAISWVRQAPGQGLEWMGMINPSGGTTSYAQKFQGRVTMTRDTSTSTVYMELSSLRPEDTAVYYCARGFRMDQWGQGTLVTVSS | – | 43.5 | 36.3 |
| 4.5 (bispecific antibody, expressed from mRNA in T cells) scFv-G4S-scFv: QVQLVQSGAEVKKPGSSVKVSCKASGGTFSSYAISWVRQAPGQGLEWMGMINPSGGTTSYAQKFQGRVTMTRDTSTSTVYMELSSLRPEDTAVYYCARGFRMDQWGQGTLVTVSSGGGGSGGGGSGGGGSQSALTQPPSASGSPGQSVTISCTGTSSDVGAYNFVSWYQQHPGNAPKLIIYDVRKRPSGIPDRFSASKSGNTASLTVSGLQADDEADYYCSSYAGNNNLVFGGGTKLTVLGGGGSDIQLTQSPSSLSVSVGDRVTISCRASESVEYYVTSLMQWYQQKPGQAPKLLIFAASNVESGVPSRFSGSGSGTNFTLTISSVQEEDFAMYFCQQSRKVPYTFGGGTKLEIKGGGGSGGGGSGGGGSQVKLQESGPGLVKPSETLSITCTVSGFSLSDYGVHWVRQSPGKGLEWLGVIWAGGGTNYNSALMSRKTISKDNSKSQVFLKMSSLTAADTAVYYCARDKGYSYYYSMDYWGQGTTVTVSS | – | 72.2 | 65 |
| anti-mesothelin scFv-M22 (scFv, On mRNA-electroporated T cells as CAR) scFv: QSALTQPASVSGSPGQSITLSCTGTRRDIGGYEYVSWYQQHPGKAPKLLIFSVNNRPSGVSHRFSGSKSGNTASLTISGLQAEDEAAYFCSSYSSRDTLVLFGGGTKLTVLGGGGSGGGGSGGGGSQVQLVQSGAEVKKPGSSVKVSCKASGGTFSSYAISWVRQAPGQGLEWMGGIIPIFGTANYAQKFQGRVTITADESTSTAYMELSSLRSEDTAVYYCASGRSGSYGLYWGQGTLVTVSS | 80% | – | – |
